# Assays:
# [1] = NCT03311724: weight loss at Week 12; type: in vivo, human
# Source text: (§1) This is a 12-week treatment with a 1 week screening (Visit 1) followed by a 1 week lead-in (Visit 2), then 12 weeks of treatment (Visits 3-10, including telephone visits), then followed by 4-week safety follow-up. It is a Phase 2 study designed to examine the efficacy and tolerability of subcutaneously once-weekly tirzepatide compared with placebo in patients with type 2 diabetes who have inadequate glycemic control with diet and exercise alone or with a stable dose of metformin. The study was designed per below and conducted to refine the escalation scheme.
# [2] = NCT03311724: nausea, vomiting and diarrhea, new events per interval; type: in vivo, human
# Source text: as §1
# [3] = LY 12 mg Group 3 (tirzepatide 4 mg × 4, 8 mg × 4, 12 mg × 4 once weekly), LOCF Week 12 (N = 27)
# [4] = LY 12 mg Group 3 (tirzepatide 4 mg × 4, 8 mg × 4, 12 mg × 4 once weekly), Week 12 mITT on-treatment (N = 27)
# [5] = LY 15 mg-Group 1 (tirzepatide 2.5 mg × 2, 5 mg × 2, 10 mg × 4, 15 mg × 4 once weekly), LOCF Week 12 (N = 27)
# [6] = LY 15 mg-Group 1 (tirzepatide 2.5 mg × 2, 5 mg × 2, 10 mg × 4, 15 mg × 4 once weekly), Week 12 mITT on-treatment (N = 23)
# [7] = LY 15 mg-Group 2 (tirzepatide 2.5 mg × 4, 7.5 mg × 4, 15 mg × 4 once weekly), LOCF Week 12 (N = 27)
# [8] = LY 15 mg-Group 2 (tirzepatide 2.5 mg × 4, 7.5 mg × 4, 15 mg × 4 once weekly), Week 12 mITT on-treatment (N = 26)
substance,measurement,setting,value
tirzepatide [LY],body weight vs placebo (in words),"[1]; 12 mg and 15 mg tirzepatide doses, at 12 weeks",significant reductions in body weight compared with placebo
same,% of Patients Achieving Weight loss ≥5%,[1]; [3],63.0%
same,% of Patients Achieving Weight loss ≥10%,[1]; [3],18.5%
same,"odds ratio vs. placebo, Weight loss ≥5%",[1]; [3],22.7
same,"odds ratio vs. placebo, Weight loss ≥10%",[1]; [3],10.4
same,% of Patients Achieving Weight loss ≥5%,[1]; [4],63.0%
same,% of Patients Achieving Weight loss ≥10%,[1]; [4],18.5%
same,"odds ratio vs. placebo, Weight loss ≥5%",[1]; [4],20.7
same,"odds ratio vs. placebo, Weight loss ≥10%",[1]; [4],9.3
same,% of Patients Achieving Weight loss ≥5%,[1]; [5],59.3%
same,% of Patients Achieving Weight loss ≥10%,[1]; [5],14.8%
same,"odds ratio vs. placebo, Weight loss ≥5%",[1]; [5],20.5
same,"odds ratio vs. placebo, Weight loss ≥10%",[1]; [5],8.0
same,% of Patients Achieving Weight loss ≥5%,[1]; [6],56.5%
same,% of Patients Achieving Weight loss ≥10%,[1]; [6],13.0%
same,"odds ratio vs. placebo, Weight loss ≥5%",[1]; [6],17.1
same,"odds ratio vs. placebo, Weight loss ≥10%",[1]; [6],6.2
same,% of Patients Achieving Weight loss ≥5%,[1]; [7],55.6%
same,% of Patients Achieving Weight loss ≥10%,[1]; [7],18.5%
same,"odds ratio vs. placebo, Weight loss ≥5%",[1]; [7],17.6
same,"odds ratio vs. placebo, Weight loss ≥10%",[1]; [7],10.6
same,% of Patients Achieving Weight loss ≥5%,[1]; [8],57.7%
same,% of Patients Achieving Weight loss ≥10%,[1]; [8],19.2%
same,"odds ratio vs. placebo, Weight loss ≥5%",[1]; [8],17.4
same,"odds ratio vs. placebo, Weight loss ≥10%",[1]; [8],9.7
same,"Nausea Vomiting and Diarrhea: m, number of patients who experienced new event during interval","[2]; LY12 mg Group 3 (tirzepatide 4 mg × 4, 8 mg × 4, 12 mg × 4 once weekly), N = 29, Follow-up",m = 1;
same,"Nausea Vomiting and Diarrhea: m, number of patients who experienced new event during interval","[2]; LY12 mg Group 3 (tirzepatide 4 mg × 4, 8 mg × 4, 12 mg × 4 once weekly), N = 29, Overall",m = 14;
same,"Nausea Vomiting and Diarrhea: m, number of patients who experienced new event during interval","[2]; LY12 mg Group 3 (tirzepatide 4 mg × 4, 8 mg × 4, 12 mg × 4 once weekly), N = 29, T/Wk 0",m = 9;
same,"Nausea Vomiting and Diarrhea: m, number of patients who experienced new event during interval","[2]; LY12 mg Group 3 (tirzepatide 4 mg × 4, 8 mg × 4, 12 mg × 4 once weekly), N = 29, T/Wk 1",m = 5;
same,"Nausea Vomiting and Diarrhea: m, number of patients who experienced new event during interval","[2]; LY12 mg Group 3 (tirzepatide 4 mg × 4, 8 mg × 4, 12 mg × 4 once weekly), N = 29, T/Wk 2",m = 1;
same,"Nausea Vomiting and Diarrhea: m, number of patients who experienced new event during interval","[2]; LY12 mg Group 3 (tirzepatide 4 mg × 4, 8 mg × 4, 12 mg × 4 once weekly), N = 29, T/Wk 3",m = 3;
same,"Nausea Vomiting and Diarrhea: m, number of patients who experienced new event during interval","[2]; LY12 mg Group 3 (tirzepatide 4 mg × 4, 8 mg × 4, 12 mg × 4 once weekly), N = 29, T/Wk 4",m = 3;
same,"Nausea Vomiting and Diarrhea: m, number of patients who experienced new event during interval","[2]; LY12 mg Group 3 (tirzepatide 4 mg × 4, 8 mg × 4, 12 mg × 4 once weekly), N = 29, T/Wk 5",m = 0;
same,"Nausea Vomiting and Diarrhea: m, number of patients who experienced new event during interval","[2]; LY12 mg Group 3 (tirzepatide 4 mg × 4, 8 mg × 4, 12 mg × 4 once weekly), N = 29, T/Wk 6",m = 2;
same,"Nausea Vomiting and Diarrhea: m, number of patients who experienced new event during interval","[2]; LY12 mg Group 3 (tirzepatide 4 mg × 4, 8 mg × 4, 12 mg × 4 once weekly), N = 29, T/Wk 7",m = 1;
same,"Nausea Vomiting and Diarrhea: m, number of patients who experienced new event during interval","[2]; LY12 mg Group 3 (tirzepatide 4 mg × 4, 8 mg × 4, 12 mg × 4 once weekly), N = 29, T/Wk 8",m = 4;
same,"Nausea Vomiting and Diarrhea: m, number of patients who experienced new event during interval","[2]; LY12 mg Group 3 (tirzepatide 4 mg × 4, 8 mg × 4, 12 mg × 4 once weekly), N = 29, T/Wk 9",m = 1;
same,"Nausea Vomiting and Diarrhea: m, number of patients who experienced new event during interval","[2]; LY12 mg Group 3 (tirzepatide 4 mg × 4, 8 mg × 4, 12 mg × 4 once weekly), N = 29, T/Wk 10",m = 1;
same,"Nausea Vomiting and Diarrhea: m, number of patients who experienced new event during interval","[2]; LY12 mg Group 3 (tirzepatide 4 mg × 4, 8 mg × 4, 12 mg × 4 once weekly), N = 29, T/Wk 11",m = 0;
same,"Nausea Vomiting and Diarrhea: m, number of patients who experienced new event during interval","[2]; LY12 mg Group 3 (tirzepatide 4 mg × 4, 8 mg × 4, 12 mg × 4 once weekly), N = 29, T/Wk 12",m = 1;
same,"Nausea Vomiting and Diarrhea: m, number of patients who experienced new event during interval","[2]; LY15 mg-Group 1 (tirzepatide 2.5 mg × 2, 5 mg × 2, 10 mg × 4, 15 mg × 4 once weekly), N = 28, Follow-up",m = 0;
same,"Nausea Vomiting and Diarrhea: m, number of patients who experienced new event during interval","[2]; LY15 mg-Group 1 (tirzepatide 2.5 mg × 2, 5 mg × 2, 10 mg × 4, 15 mg × 4 once weekly), N = 28, Overall",m = 16;
same,"Nausea Vomiting and Diarrhea: m, number of patients who experienced new event during interval","[2]; LY15 mg-Group 1 (tirzepatide 2.5 mg × 2, 5 mg × 2, 10 mg × 4, 15 mg × 4 once weekly), N = 28, T/Wk 0",m = 6;
same,"Nausea Vomiting and Diarrhea: m, number of patients who experienced new event during interval","[2]; LY15 mg-Group 1 (tirzepatide 2.5 mg × 2, 5 mg × 2, 10 mg × 4, 15 mg × 4 once weekly), N = 28, T/Wk 1",m = 3;
same,"Nausea Vomiting and Diarrhea: m, number of patients who experienced new event during interval","[2]; LY15 mg-Group 1 (tirzepatide 2.5 mg × 2, 5 mg × 2, 10 mg × 4, 15 mg × 4 once weekly), N = 28, T/Wk 2",m = 2;
same,"Nausea Vomiting and Diarrhea: m, number of patients who experienced new event during interval","[2]; LY15 mg-Group 1 (tirzepatide 2.5 mg × 2, 5 mg × 2, 10 mg × 4, 15 mg × 4 once weekly), N = 28, T/Wk 3",m = 1;
same,"Nausea Vomiting and Diarrhea: m, number of patients who experienced new event during interval","[2]; LY15 mg-Group 1 (tirzepatide 2.5 mg × 2, 5 mg × 2, 10 mg × 4, 15 mg × 4 once weekly), N = 28, T/Wk 4",m = 5;
same,"Nausea Vomiting and Diarrhea: m, number of patients who experienced new event during interval","[2]; LY15 mg-Group 1 (tirzepatide 2.5 mg × 2, 5 mg × 2, 10 mg × 4, 15 mg × 4 once weekly), N = 28, T/Wk 5",m = 6;
same,"Nausea Vomiting and Diarrhea: m, number of patients who experienced new event during interval","[2]; LY15 mg-Group 1 (tirzepatide 2.5 mg × 2, 5 mg × 2, 10 mg × 4, 15 mg × 4 once weekly), N = 28, T/Wk 6",m = 2;
same,"Nausea Vomiting and Diarrhea: m, number of patients who experienced new event during interval","[2]; LY15 mg-Group 1 (tirzepatide 2.5 mg × 2, 5 mg × 2, 10 mg × 4, 15 mg × 4 once weekly), N = 28, T/Wk 7",m = 0;
same,"Nausea Vomiting and Diarrhea: m, number of patients who experienced new event during interval","[2]; LY15 mg-Group 1 (tirzepatide 2.5 mg × 2, 5 mg × 2, 10 mg × 4, 15 mg × 4 once weekly), N = 28, T/Wk 8",m = 4;
same,"Nausea Vomiting and Diarrhea: m, number of patients who experienced new event during interval","[2]; LY15 mg-Group 1 (tirzepatide 2.5 mg × 2, 5 mg × 2, 10 mg × 4, 15 mg × 4 once weekly), N = 28, T/Wk 9",m = 0;
same,"Nausea Vomiting and Diarrhea: m, number of patients who experienced new event during interval","[2]; LY15 mg-Group 1 (tirzepatide 2.5 mg × 2, 5 mg × 2, 10 mg × 4, 15 mg × 4 once weekly), N = 28, T/Wk 10",m = 3;
same,"Nausea Vomiting and Diarrhea: m, number of patients who experienced new event during interval","[2]; LY15 mg-Group 1 (tirzepatide 2.5 mg × 2, 5 mg × 2, 10 mg × 4, 15 mg × 4 once weekly), N = 28, T/Wk 11",m = 2;
same,"Nausea Vomiting and Diarrhea: m, number of patients who experienced new event during interval","[2]; LY15 mg-Group 1 (tirzepatide 2.5 mg × 2, 5 mg × 2, 10 mg × 4, 15 mg × 4 once weekly), N = 28, T/Wk 12",m = 0;
same,"Nausea Vomiting and Diarrhea: m, number of patients who experienced new event during interval","[2]; LY15 mg-Group 2 (tirzepatide 2.5 mg × 4, 7.5 mg × 4, 15 mg × 4 once weekly), N = 28, Follow-up",m = 0;
same,"Nausea Vomiting and Diarrhea: m, number of patients who experienced new event during interval","[2]; LY15 mg-Group 2 (tirzepatide 2.5 mg × 4, 7.5 mg × 4, 15 mg × 4 once weekly), N = 28, Overall",m = 13;
same,"Nausea Vomiting and Diarrhea: m, number of patients who experienced new event during interval","[2]; LY15 mg-Group 2 (tirzepatide 2.5 mg × 4, 7.5 mg × 4, 15 mg × 4 once weekly), N = 28, T/Wk 0",m = 4;
same,"Nausea Vomiting and Diarrhea: m, number of patients who experienced new event during interval","[2]; LY15 mg-Group 2 (tirzepatide 2.5 mg × 4, 7.5 mg × 4, 15 mg × 4 once weekly), N = 28, T/Wk 1",m = 4;
same,"Nausea Vomiting and Diarrhea: m, number of patients who experienced new event during interval","[2]; LY15 mg-Group 2 (tirzepatide 2.5 mg × 4, 7.5 mg × 4, 15 mg × 4 once weekly), N = 28, T/Wk 2",m = 2;
same,"Nausea Vomiting and Diarrhea: m, number of patients who experienced new event during interval","[2]; LY15 mg-Group 2 (tirzepatide 2.5 mg × 4, 7.5 mg × 4, 15 mg × 4 once weekly), N = 28, T/Wk 3",m = 3;
same,"Nausea Vomiting and Diarrhea: m, number of patients who experienced new event during interval","[2]; LY15 mg-Group 2 (tirzepatide 2.5 mg × 4, 7.5 mg × 4, 15 mg × 4 once weekly), N = 28, T/Wk 4",m = 6;
same,"Nausea Vomiting and Diarrhea: m, number of patients who experienced new event during interval","[2]; LY15 mg-Group 2 (tirzepatide 2.5 mg × 4, 7.5 mg × 4, 15 mg × 4 once weekly), N = 28, T/Wk 5",m = 2;
same,"Nausea Vomiting and Diarrhea: m, number of patients who experienced new event during interval","[2]; LY15 mg-Group 2 (tirzepatide 2.5 mg × 4, 7.5 mg × 4, 15 mg × 4 once weekly), N = 28, T/Wk 6",m = 3;
same,"Nausea Vomiting and Diarrhea: m, number of patients who experienced new event during interval","[2]; LY15 mg-Group 2 (tirzepatide 2.5 mg × 4, 7.5 mg × 4, 15 mg × 4 once weekly), N = 28, T/Wk 7",m = 2;
same,"Nausea Vomiting and Diarrhea: m, number of patients who experienced new event during interval","[2]; LY15 mg-Group 2 (tirzepatide 2.5 mg × 4, 7.5 mg × 4, 15 mg × 4 once weekly), N = 28, T/Wk 8",m = 5;
same,"Nausea Vomiting and Diarrhea: m, number of patients who experienced new event during interval","[2]; LY15 mg-Group 2 (tirzepatide 2.5 mg × 4, 7.5 mg × 4, 15 mg × 4 once weekly), N = 28, T/Wk 9",m = 2;
same,"Nausea Vomiting and Diarrhea: m, number of patients who experienced new event during interval","[2]; LY15 mg-Group 2 (tirzepatide 2.5 mg × 4, 7.5 mg × 4, 15 mg × 4 once weekly), N = 28, T/Wk 10",m = 0;
same,"Nausea Vomiting and Diarrhea: m, number of patients who experienced new event during interval","[2]; LY15 mg-Group 2 (tirzepatide 2.5 mg × 4, 7.5 mg × 4, 15 mg × 4 once weekly), N = 28, T/Wk 11",m = 3;
same,"Nausea Vomiting and Diarrhea: m, number of patients who experienced new event during interval","[2]; LY15 mg-Group 2 (tirzepatide 2.5 mg × 4, 7.5 mg × 4, 15 mg × 4 once weekly), N = 28, T/Wk 12",m = 0;

# Reference: patent US12616740B2, “Methods of using a GIP/GLP1 co-agonist for therapy” (ELI LILLY AND COMPANY, priority 2018, dated 2026)
